B1: PS430: ClpS protein, SEQ ID NO: 53 (protein)
chain: MQPFEETYTDVLDEVVDTDVHNLVVFNDDVNTFDHVIETLIDVCKHTPEQAEQCTLLIHYKGKCSVKNGSWEELVPMRNEICRRGISAEVLK
B2: PS561: PS372-homologous ClpS protein, SEQ ID NO: 75 (protein)
chain: MAELQTAVVEPTTRPEQDEKQSQSRPKRQPRYNVILWDDPDHSYDYVIMMLKELFGHPRQRGHQMAEEVDTTGRVICLTTTMEHAELKRDQIHAYGSDEGITRCKGSMSASIEPVPE
modifications: Roseimaritima sp. JC651
B3: PS545: PS372-homologous ClpS protein, SEQ ID NO: 59 (protein, listed as Planctomycetales bacterium)
chain: MSEPMTLPAIPQPRLKERTQRQPPYNVILLNDDDHSYEYVIAMLQVLFGYPREKGYQMAKEVDSTGRVILLTTTREHAELKQEQIHAFGPDPLMARCQGSMTAVIEPAV
B4: PS423: ClpS protein, SEQ ID NO: 46 (protein)
chain: MAPTPAGAAVLDKQQQRRHKHASRYRVLLHNDPVNTMEYVVESLRQVVPQLSEQDAIAVMVEAHNTGVGLVIVCDIEPAEFYCEQLKTKGLTSSIEPED
B5: PS560: PS372-homologous ClpS protein, SEQ ID NO: 74 (protein, listed as Planctomycetes bacterium)
chain: MTETITTPAERTQTQAEPRSDRAWLWNVVLLDDDEHTYEYVIRMLHTLFGMPVERAFRLAEEVDARGRAVVLTTHKEHAELKRDQVHAFGKDALIASCAGSMSAVLEPAECGSDDED
B6: PS427: ClpS protein, SEQ ID NO: 50 (protein)
chain: MSTKEKVKERVREKEAISFNNEIIVYNDDVNTFDHVIETLIRVCNHTPEQAEQCSLIVHYNGKCTVKTGSMDKLKPQCTQLLEAGLSAEIV
B7: PS426: ClpS protein, SEQ ID NO: 49 (protein)
chain: MSIIEKTQENVAILEKVSINHEIILYNDDVNTFDHVIETLIRVCNHEELQAEQCAILVHYTGKCAVKTGSFDELQPLCLALLDAGLSAEIT
B8: PS422: ClpS protein, SEQ ID NO: 45 (protein)
chain: MTQIKPQTIPDTDVISQTQSDWQMPDLYAVIMHNDDYTTMDFVVFLLNAVFDKPIEQAYQLMMQIHQTGRAVVAILPYEIAEMKVDEATSLAEQEQFPLFISIEQA
B9: PS550: PS372-homologous ClpS protein, SEQ ID NO: 64 (protein, listed as Planctomycetes bacterium)
chain: MPTFTEPEVVNDTRILPPYHVILLNDDDHTYEYVIHMLQTLFGHPQERGFQLAVEVDKKGKAIVFTTSKEHAEFKRDQIHAFGADPLSSKNCKGSMSAVIEPSF
B10: PS425: ClpS protein, SEQ ID NO: 48 (protein)
chain: MTHYFSNILRDQESPKINPKELEQIDVLEEKEHQIILYNDDVNTFEHVIDCLVKICEHNYLQAEQCAYIVHHSGKCSVKTGSLDELVPKCNALLEEGLSAEVV
B11: PS559: PS372-homologous ClpS protein, SEQ ID NO: 73 (protein, listed as Planctomycetaceae bacterium)
chain: MNQAAISPNPDIKPNPSTHKKRASQRQPRYHVILWNDNDHTYHYVVTMLQKLFGHPPRTGIKMATEVDKKGKVIVLTTSREHAELKRDQIHAFGADKLIRRSKGAMAASIEPES
B12: PS432: ClpS protein, SEQ ID NO: 55 (protein)
chain: MIGVEARTSSAPELAIETEIRLAGLWHVIVINDPVNLMSYVVMVLRKIFGFDDTKARKHMLEVHENGRSIVWSGEREPAEAYANTLHQWHLSAVLERDETD
B13: PS553: PS372-homologous ClpS protein, SEQ ID NO: 67 (protein, listed as Planctomycetes bacterium)
chain: MPASASAVTEPPVSLPEAAAPRPKDRPKRQPRYHVILWNDDDHTYQYVVAMLRQLFGHPPEKGFTLAKQVDKDGRVVVLTTTKEHAELKRDQIHAFGADRLLARSKGSMSASIEPEASTG
B14: PS424: ClpS protein, SEQ ID NO: 47 (protein)
chain: MSVETIEKRSTTRKLAPQYRVLLHNDDYNSMEYVVQVLMTSVPSITQPQAVNIMMEAHNSGLALVITCAQEHAEFYCETLKGHGLSSTIEPD
B15: PS546: PS372-homologous ClpS protein, SEQ ID NO: 60 (protein, listed as Planctomycetales bacterium)
chain: MSDTITLPGRPEVERDERTRRQPPYNVILHNDDDHTFEYVIVMLNQLFGYPPEKGYEMAKEVHLNGRVIVLTTSKEHAELKRDQIHAFGPDPFSSKDCKGSMSASIEPAY
B16: PS555: PS372-homologous ClpS protein, SEQ ID NO: 69 (protein)
chain: MADSAQTGVAEPIQETLRRRKLRDDRRPKRQPPYHVILWNDNDHTYAYVVVMLMQLFGYPAEKGYQLASEVDTQGRAVVLTTTKEHAELKRDQIHAYGKDGLIEKCKGSMWATIEPAPGE
modifications: Planctomycetes bacterium RBG_16_64_12
B17: PS548: PS372-homologous ClpS protein, SEQ ID NO: 62 (protein, listed as Gemmataceae bacterium)
chain: MSDTITLPEEKTDVRTKRQPPYHVILLNDDDHTYQYVIYMLQTLFGHPPETGFKMAQEVDKTGRVIVDTTSLERAELKRDQIHAFGPDPYIERCKGSMSAMIEPSE
B18: PS371: ClpS protein, SEQ ID NO: 4 (protein)
chain: MATETIERPRTRDPGSGLGGHWLVIVLNDDHNTFDHVAKTLARVIPGVTVDDGYRFADQIHQRGQAIVWRGPKEPAEHYWEQLQDAGLSMAPLERH
B19: PS433: ClpS protein, SEQ ID NO: 56 (protein)
chain: MMSSLKECSIQALPSLDEKTKTEEDLSVPWKVIVLNDPVNLMSYVVMVFRKVFGYNENKATKHMMEVHQLGKSVLWTGQREEAECYAYQLQRWRLQTILEKDD
B20: PS434: ClpS protein, SEQ ID NO: 57 (protein)
chain: MSRLPWKQEAKFAATVIIDFPDATLEAPTIEKKEATEQQIEMPWNVVVHNDPVNLMSYVTMVFQRVFGYPRERAEKHMLEVHHSGRSILWSGLRERAELYVQQLHGYLLLATIEKTV
B21: PS435: ClpS protein, SEQ ID NO: 58 (protein)
chain: MTLSVALGPDTQESTQTGTAVSTDTLTAPDIPWNLVIWNDPVNLMSYVSYVFQSYFGYSETKANKLMMEVHKKGRSIVAHGSKEQVEQHAVAMHGYGLWATVEKATGGNSGGGKSGGPGKGKGKRG
B22: PS554: PS372-homologous ClpS protein, SEQ ID NO: 68 (protein, listed as Planctomycetes bacterium)
chain: MSDSASATVEVQADPPADATARSQPTPARSTGSKPKRQPRYHVVLWNDDDHTYEYVIAMLRRLFGIEPEKGFRIAEEVDQSGRAVVLTTTREHAELKRDQIHAFGADRLLARSKGSMSASIEPEA
B23: PS552: PS372-homologous ClpS protein, SEQ ID NO: 66 (protein)
chain: MSKTSTLPEVESESAQKLKYQPPYHVILLNDDDHSYVYVITMLKELFGHPEQKGYQLADAVDKQGRAIVFTTTREHAELKQEQIHAYGPDPTIPRCKGAMTAVIEPAE
modifications: Fimbriiglobus ruber
B24: PS558: PS372-homologous ClpS protein, SEQ ID NO: 72 (protein, listed as Planctomycetes bacterium)
chain: MTATTADPDRTTAEKTTKKARRSGQPKRQPRYHVILWNDNDHTYQYVVAMLQQLFGHPATTGLKLATEVDRTGRAVILTTTREHAELKRDQIHAFGADRLLARSKGAMSASIEPEAE
B25: PS547: PS372-homologous ClpS protein, SEQ ID NO: 61 (protein, listed as Gemmataceae bacterium)
chain: MGFPTDFRQSIEISTPLGSQQPRFSNASSEPALADPVLVINPRIQPRYHVILLNDDDHTYRYVIEMMLIVFGHPPEKGFLIAKEVDKAGRAICLTTSLEHAEFKQEQVHAYGADPYFGPKCKGSMTAVLEPAE
B26: PS549: PS372-homologous ClpS protein, SEQ ID NO: 63 (protein, listed as Planctomycetes bacterium)
chain: MSESITTLPKKSRRLKEEEEQKTKRQPPYNVILLNDDDHTFEYVIFMLQKLFGHPPERGMQMAKEVHTTGRVIVMTTALELAELKRDQIHAFGPDPLIDRCKGSMSATIEPAPI
B27: PS556: PS372-homologous ClpS protein, SEQ ID NO: 70 (protein, listed as Blastopirellula marina)
chain: MGDSNTSVAEPGEVTVVTTKPAPKKAKPKRQPKYHVVLWNDDDHTYEYVILMMHELFGHPVEKGFQIAKTVDADGRAICLTTTKEHAELKRDQIHAYGKDELIARCRGSMSSTIEPEC
B28: PS551: PS372-homologous ClpS protein, SEQ ID NO: 65 (protein, listed as Rubrobacter indicoceani)
chain: MPSAAPAKPKTKRQSRTQGMPPYNVVLLDDDDHTYGYVIEMLNKVFGHPPEKGFELATEVDKNGRVIVMTTNLEVAELKRDEVHAFGPDPLMPRSKGSMSAVVERAG

System: amino acid at a terminal position of a polypeptide
Assay: Amino acid binding preference of recognition proteins (Tables 1 and 2)
Conditions: Table 1, ClpS proteins; amino acid identity at a terminal position of a polypeptide; inferred from literature and/or demonstrated by the inventors
Description: It should be appreciated that these sequences and other examples described herein are meant to be non-limiting, and recognition molecules in accordance with the application can include any homologs, variants thereof, or fragments thereof minimally containing domains or subdomains responsible for peptide recognition.

Molecule | Binding Pref.
B1 | F, Y, W, L
B2 | I, L, V
B3 | I, L, V
B4 | F, Y, W
B5 | I, L, V
B6 | F, W
B7 | F, Y, W, L
B8 | F, Y, W, L
B9 | I, L, V
B10 | F, Y, W, L
B11 | I, L, V
B12 | F, W
B13 | I, L, V
B14 | F, Y, W
B15 | I, L, V
B16 | I, L, V
B17 | I, L, V
B18 | F, Y, W, L
B19 | F, Y, W, L
B20 | F, Y, W, L
B21 | F, Y, W, L
B22 | I, L, V
B23 | I, L, V
B24 | I, L, V
B25 | I, L, V
B26 | I, L, V
B27 | I, L, V
B28 | I, L, V

— US12065466B2, “Methods and compositions for protein sequencing” (Quantum-Si Incorporated, priority 2020, dated 2024)
